Measurements taken from article PMC3794917.

Columns and labels:
[1] = molecular target: Rad51;Rad52 (Saccharomyces cerevisiae) (UniProt P06778); assay: EMSA (glutaraldehyde-fixed, agarose); conditions: Rad52 EMSA: 10 mM Tris-HCl pH 8, 5 mM MgCl2, 100 mM NaCl, 37 C, 10 min, 0.27 uM XV2, 8% native PAGE, filament assays: SEB buffer, 60 mM NaCl (or titrated) …, scale: mM NaCl
[2] = molecular target: Rad51;Rad52-L264P L264P (Saccharomyces cerevisiae) (UniProt P06778); assay: EMSA (glutaraldehyde-fixed, agarose); conditions: Rad52 EMSA: 10 mM Tris-HCl pH 8, 5 mM MgCl2, 100 mM NaCl, 37 C, 10 min, 0.27 uM XV2, 8% native PAGE, filament assays: SEB buffer, 60 mM NaCl (or titrated) …, scale: mM NaCl
[3] = molecular target: Rad51;Rad52 (Saccharomyces cerevisiae) (UniProt P06778); assay: EM; conditions: RPA pre-bound, 60 mM NaCl, Rad52 EMSA: 10 mM Tris-HCl pH 8, 5 mM MgCl2, 100 mM NaCl, 37 C, 10 min, 0.27 uM XV2, 8% native PAGE, filament assays: SEB buffer, 60 mM NaCl (or titrated) …
[4] = molecular target: Rad51;Rad52-L264P L264P (Saccharomyces cerevisiae) (UniProt P06778); assay: EM; conditions: RPA pre-bound, 60 mM NaCl (WT Rad52 55%); Rad52 EMSA: 10 mM Tris-HCl pH 8, 5 mM MgCl2, 100 mM NaCl, 37 C, 10 min, 0.27 uM XV2, 8% native PAGE; filament assays: SEB buffer, 60 mM NaCl (or titrated) …; scale: % of complete Rad51 filaments associated with Rad52-L264P

Chain of Rad51;Rad52 (Saccharomyces cerevisiae) (P06778 whole entry, looked up): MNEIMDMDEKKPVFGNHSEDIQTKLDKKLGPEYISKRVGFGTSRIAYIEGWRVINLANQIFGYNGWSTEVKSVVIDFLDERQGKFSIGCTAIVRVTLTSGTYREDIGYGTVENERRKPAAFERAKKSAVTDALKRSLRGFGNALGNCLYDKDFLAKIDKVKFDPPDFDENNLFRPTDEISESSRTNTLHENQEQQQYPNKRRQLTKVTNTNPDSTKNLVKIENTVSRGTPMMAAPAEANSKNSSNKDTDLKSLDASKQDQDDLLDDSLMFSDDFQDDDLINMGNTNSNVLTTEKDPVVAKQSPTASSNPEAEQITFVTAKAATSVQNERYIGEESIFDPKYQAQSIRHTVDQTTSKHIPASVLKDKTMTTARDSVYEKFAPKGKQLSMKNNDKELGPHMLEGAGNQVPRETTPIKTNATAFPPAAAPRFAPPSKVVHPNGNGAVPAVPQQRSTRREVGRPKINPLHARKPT
Chain of Rad51;Rad52-L264P L264P (Saccharomyces cerevisiae) (P06778 whole entry L264P, looked up): as the sequence (P06778 whole entry, looked up) above, with L264P counted along it

What does the source list for 400-nt ssDNA fragment?
K half ([1]; RPA pre-bound, NaCl titration during assembly): 90; K half [1]: 400; K half ([2]; RPA pre-bound, NaCl added after assembly, no difference from WT): 400; K half [2]: 90; binding signal (% complete Rad51 filaments) ([3]; 55% of complete filaments carry Rad52): 48; binding signal ([3]; scale: % of complete Rad51 filaments associated with Rad52): 55; binding signal [4]: 74
